Experimental data taken from patent US20220204611A1 (Amgen, published 2022).

T1: recombinant soluble human TREM2 protein (human TREM2 ECD-FlagHis) (human, UniProt Q9NZC2 19-174)
T1 sequence: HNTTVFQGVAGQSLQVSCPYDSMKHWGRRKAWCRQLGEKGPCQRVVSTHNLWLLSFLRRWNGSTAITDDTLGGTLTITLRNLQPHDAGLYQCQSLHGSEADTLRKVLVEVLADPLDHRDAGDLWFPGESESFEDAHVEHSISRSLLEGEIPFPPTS

T2: human TREM2 on cells (human, UniProt Q9NZC2 19-230)
T2 sequence: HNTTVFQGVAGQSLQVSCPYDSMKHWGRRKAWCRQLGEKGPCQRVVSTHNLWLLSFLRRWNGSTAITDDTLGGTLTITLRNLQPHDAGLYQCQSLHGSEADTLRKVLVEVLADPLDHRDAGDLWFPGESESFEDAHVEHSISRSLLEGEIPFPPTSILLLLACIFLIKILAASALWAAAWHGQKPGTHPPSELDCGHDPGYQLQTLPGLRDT

T3: soluble human TREM2 protein (TREM2 ECD-huIgG1 Fc fusion protein) (human, UniProt Q9NZC2 19-174, biotinylated)
T3 construct: also called biotinylated soluble human TREM2 protein
T3 sequence: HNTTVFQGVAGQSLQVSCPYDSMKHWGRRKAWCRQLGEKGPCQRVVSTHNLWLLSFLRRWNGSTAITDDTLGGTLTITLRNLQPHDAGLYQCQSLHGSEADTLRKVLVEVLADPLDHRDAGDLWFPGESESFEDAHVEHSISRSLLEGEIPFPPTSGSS

T4: recombinant soluble cynomolgus TREM2 protein (cynomolgus TREM2 extracellular domain coupled to a Flag/His tag) (cynomolgus, UniProt A0A2K5UY34 49-204)
T4 construct: extracellular domain; also called Cyno TREM2
T4 sequence: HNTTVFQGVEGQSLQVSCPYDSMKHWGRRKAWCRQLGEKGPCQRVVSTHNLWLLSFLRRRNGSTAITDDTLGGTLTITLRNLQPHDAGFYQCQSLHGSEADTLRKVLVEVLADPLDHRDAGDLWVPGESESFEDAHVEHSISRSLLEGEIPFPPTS


Experiments:
[1] = target: T1, recombinant soluble human TREM2 protein …; assay: Octet BLI binning; competitor: load Ab 26F2
Procedure: (§1) Each of sixteen different anti-TREM2 antibodies produced from hybridomas were quantitated and loaded onto one of the anti-human Fc sensors at 5 μg/mL for 2 minutes (“Load Antibody”). The sensor was then blocked with 100 μg/mL of an irrelevant human IgG2 antibody for 5 minutes. […] Next, each of the sixteen different anti-TREM2 antibodies (“Sandwich Antibody”) was added to the sensor at 5 μg/mL and allowed to bind for 5 minutes. All assay buffers contained 10 mM Tris (pH 7.6), 0.1% Triton X-100, 150 mM NaCl, 1 mM CaCl₂, and 1 mg/mL BSA. The assay was conducted at 25° C. Experimental kinetic results were fit to a 1:1 binding model.
(§2) However, if addition of the sandwich antibody produces a binding event, then the sandwich antibody binds to a different epitope on human TREM2 than the load antibody and the two antibodies are categorized into different epitope bins.

human TREM2 on cells [2] = target: T2, human TREM2 on cells; assay: cell-based or functional assay
[3] = target: T1, recombinant soluble human TREM2 protein …; assay: Octet BLI binning; competitor: load Ab 25F12
Procedure: as §1, §2

[4] = target: T1, recombinant soluble human TREM2 protein …; assay: Octet BLI binning; competitor: load Ab 13E7
Procedure: as §1, §2

[5] = target: T1, recombinant soluble human TREM2 protein …; assay: Octet BLI binning; competitor: load Ab 24G6
Procedure: as §1, §2

[6] = target: T1, recombinant soluble human TREM2 protein …; assay: Octet BLI binning; competitor: load Ab 6E7
Procedure: as §1, §2

human TREM2 on cells [7] = target: T2, human TREM2 on cells; assay: cell-based or functional assay; remark: listed apart in the source
[8] = target: T1, recombinant soluble human TREM2 protein …; assay: Octet BLI binning; competitor: load Ab 16B8
Procedure: as §1, §2

[9] = target: T1, recombinant soluble human TREM2 protein …; assay: Octet BLI binning; competitor: load Ab 4C5
Procedure: as §1, §2

[10] = target: T1, recombinant soluble human TREM2 protein …; assay: Octet BLI binning; competitor: load Ab 4G10
Procedure: as §1, §2

[11] = target: T1, recombinant soluble human TREM2 protein …; assay: Octet BLI binning; competitor: load Ab 32E3
Procedure: as §1, §2

[12] = target: T1, recombinant soluble human TREM2 protein …; assay: Octet BLI binning; competitor: load Ab 26C10
Procedure: as §1, §2

[13] = target: T1, recombinant soluble human TREM2 protein …; assay: Octet BLI binning; competitor: load Ab 10E3
Procedure: as §1, §2

[14] = target: T1, recombinant soluble human TREM2 protein …; assay: Octet BLI binning; competitor: load Ab 24A10
Procedure: as §1, §2

[15] = target: T1, recombinant soluble human TREM2 protein …; assay: Octet BLI binning; competitor: load Ab 33B12
Procedure: as §1, §2

[16] = target: T1, recombinant soluble human TREM2 protein …; assay: Octet BLI binning; competitor: load Ab 5E3
Procedure: as §1, §2

[17] = target: T3, soluble human TREM2 protein (TREM2 …); assay: ELISA, hybridoma supernatant on captured biotinylated TREM2 ECD-Fc
Procedure: Exhausted hybridoma supernatants were tested for binding to human TREM2 by ELISA. Briefly, neutravidin plates were generated by incubating a 384 well Corning Assay Plate 3702 with neutravidin (Thermo 3100B) at 10 μg/mL (40 μL/well) in 1× PBS at 4° C. overnight. The plates were washed with 1× PBS using a Biotek plate washer and then blocked with 1% milk/1× PBS (90 μL/well) at room temperature (RT) for 30 minutes. The plates were then washed again with 1× PBS using the plate washer. […] The plates were then incubated at RT for 1 hour to immobilize the TREM2 protein to the wells of the plates. Following the incubation, the plates were again washed with 1× PBS using the plate washer. 10 μL of each hybridoma supernatant to be tested and 40 μL of 1% milk/1× PBS (1:5 dilution) were added to each well of the plates and incubated at RT for 1 hour. Again, the plates were washed with 1× PBS using the plate washer. […] After the plates were washed with 1× PBS using the plate washer, 40 μL/well of TMB substrate (Neogen, lot #150114) was added to the plates and the plates were incubated at RT for 30 minutes. The reaction was quenched with 1N hydrochloric acid (40 uL/well) following the incubation period. OD readings at 450 nm were obtained with a plate reader.

[18] = target: T1, recombinant soluble human TREM2 protein …; assay: Octet BLI binning; competitor: load Ab 26A10
Procedure: as §1, §2

[19] = target: T1, recombinant soluble human TREM2 protein …; assay: Octet BLI binning; competitor: load Ab 24F4
Procedure: as §1, §2

[20] = target: T4, recombinant soluble cynomolgus TREM2 …; assay: Octet BLI, antibody on anti-human Fc sensor, 25 C
Procedure: (§3) To quantitate the binding affinity of agonist antibodies for human TREM2, association and dissociation rate constants as well as the equilibrium dissociation constant were determined using anti-human Fc (Kinetic) sensors on an Octet® HTX instrument (Pall ForteBio). Agonist anti-TREM2 antibodies were made up in DMEM null media, 250 μL at 10 μg/mL. The, 250 uL of assay buffer (10 mM Tris (pH 7.6), 0.1% Triton X-100, 150 mM NaCl, 1mM CaCl₂, and 1 mg/mL BSA) was added to the antibody solutions to a final volume of 500 μL and final antibody concentration of 5 μg/mL. The anti-human Fc sensor was pre-incubated in 200 μL of the assay buffer for a minimum of 10 minutes. The sensor was then regenerated for 5 seconds in 10 mM glycine pH 1.5. Test agonist anti-TREM2 antibodies were loaded onto the sensor for 2 minutes, and baseline measurements were taken for 2 minutes. […] The recombinant TREM2 proteins were allowed to associate with the antibody-loaded sensor for 10 minutes, and then dissociation was measured for 10 minutes. The assay was conducted at 25° C. Experimental kinetic results were globally fit to a 1:1 binding model in order to determine the association and dissociation rate constants as well as the equilibrium dissociation constant.

[21] = target: T1, recombinant soluble human TREM2 protein …; assay: Octet BLI, antibody on anti-human Fc sensor, 25 C
Procedure: as §3

| sandwich binding signal [1] | Emax (% maximum activation compared to RnD antibody) (human TREM2 on cells [2]) [%] | pSyk EC50, differentiated THP-1 cells (human TREM2 on cells [2]) | sandwich binding signal [3] | sandwich binding signal [4] | sandwich binding signal [5] | sandwich binding signal [6] | pSyk EC50 (human TREM2 on cells [7]) [nM] | sandwich binding signal [8] | sandwich binding signal [9] | sandwich binding signal [10] | sandwich binding signal [11] | sandwich binding signal [12] | sandwich binding signal [13] | sandwich binding signal [14] | sandwich binding signal [15] | sandwich binding signal [16] | OD 450 [17] [OD450] | sandwich binding signal [18] | sandwich binding signal [19] | Binder | further results |
| --- | --- | --- | --- | --- | --- | --- | --- | --- | --- | --- | --- | --- | --- | --- | --- | --- | --- | --- | --- | --- | --- |
| 0.31 | 265 | 1.72 nM | 0.265 |  | 0.268 |  | 0.18 |  | -0.014 | -0.011 | -0.01 |  | -0.005 |  |  |  | 3.62 |  |  | 4C5 (antibody, V domains shown, human IgG2 from hybridoma) VH: EVQLVQSGAEVKKPGESLKISCKGSGHSFTNYWIAWVRQMPGKGLEWMGIIYPGDSDTRYSPSFQGQVTISADKSISTAYLQWSSLKASDTAVYFCARQRTFYYDSSGYFDYWGQGTLVTVSS VL: DIQMTQSPSSVSASVGDRVTITCRASQGISNWLAWYQQKPGKAPKLLIYAASSLQVGVPLRFSGSGSGTDFTLTISSLQPEDFATYYCQQADSFPRNFGQGTKLEIK | Kd [20]: 3.6 nM; Kd [21]: 3.1 nM |
| -0.008 | 207 | 77.8 pM | 0.366 | 0.294 | 0.399 | 0.523 | 1.4 | -0.003 | 0.368 | 0.334 | 0.411 | -0.003 | 0.275 | 0.49 | -0.009 | -0.014 | 1.48 | 0.009 | 0.477 | 26F2 (antibody, V domains shown, human IgG2 from hybridoma) VH: EVQLVESGGALVQPGGSLRLSCAASGFTFSSFGMSWVRQAPGKGLEWISYISSSSFTIYYADSVKGRFTISRDNAKNSFYLQMNSLRDEDTAVYFCAREGGITMVRGVSSYGMDVWGQGTTVTVSS VL: not shown |  |

Second part, the binder before the results:

| Binder | sandwich binding signal [1] | Emax (% maximum activation compared to RnD antibody) (human TREM2 on cells [2]) [%] | pSyk EC50, differentiated THP-1 cells (human TREM2 on cells [2]) | sandwich binding signal [3] | sandwich binding signal [4] | sandwich binding signal [5] | sandwich binding signal [6] | pSyk EC50 (human TREM2 on cells [7]) [nM] | sandwich binding signal [8] | sandwich binding signal [9] | sandwich binding signal [10] | sandwich binding signal [11] | sandwich binding signal [12] | sandwich binding signal [13] | sandwich binding signal [14] | sandwich binding signal [15] | sandwich binding signal [16] | OD 450 [17] [OD450] | sandwich binding signal [18] | sandwich binding signal [19] | further results |
| --- | --- | --- | --- | --- | --- | --- | --- | --- | --- | --- | --- | --- | --- | --- | --- | --- | --- | --- | --- | --- | --- |
| 32E3 (antibody, human IgG2, V domains shown, human IgG2 from hybridoma) VH: EVQLVQSGAEVKKPGESLKISCKGSGYSFTSYWIGWVRQMPGKGLEWMGIIYPGDSDTRYSPSFQGQVTISADKSISTAYLQWSTLKASDTAIYYCARHDIIPAAPGAFDIWGQGTMVTVSS VL: EFVLTQSPGTLSLSPGERATLSCRASQIISSNYLAWYQQKPGQAPRLLIYSASSRATGIPDRFSGSGSGTDFTLTISRLEPEDFAVYYCQQFDSSPITFGRGTRLDIK | 0.143 | 197 | 1.25 nM | 0.154 | -0.027 | 0.126 | -0.024 | 1.2 | 0.12 | -0.016 | -0.02 | -0.01 | 0.141 | -0.023 | 0.162 | 0.132 | 0.176 | 1.41 | 0.157 | -0.021 |  |
| 25F12 (antibody, human IgG2, V domains shown, human IgG2 from hybridoma) VH: QVQLQQWGAGLLKPSETLSLTCAVYGGSFSSYYWSWIRQPPGKGLEWIGEINHSGNTNYNPSLKSRVTISVDTSKNQFSLKLSSVTAADTAVYYCAREGYYDILTGYHDAFDIWDQGTMVTVFS VL: not shown | 0.33 | 122 | 1.05 nM | 0.011 | 0.104 | 0.284 | 0.213 | 2.6 | 0.252 | 0.154 | 0.142 | 0.236 | 0.327 | 0.089 | 0.34 | 0.275 | 0.335 | 1.29 | 0.347 | 0.18 |  |
